Test results: PMC9005503

Target: T1, FZD3 (human (endogenous in hESC-derived EPs)) (UniProt Q9NPG1)
T1 sequence: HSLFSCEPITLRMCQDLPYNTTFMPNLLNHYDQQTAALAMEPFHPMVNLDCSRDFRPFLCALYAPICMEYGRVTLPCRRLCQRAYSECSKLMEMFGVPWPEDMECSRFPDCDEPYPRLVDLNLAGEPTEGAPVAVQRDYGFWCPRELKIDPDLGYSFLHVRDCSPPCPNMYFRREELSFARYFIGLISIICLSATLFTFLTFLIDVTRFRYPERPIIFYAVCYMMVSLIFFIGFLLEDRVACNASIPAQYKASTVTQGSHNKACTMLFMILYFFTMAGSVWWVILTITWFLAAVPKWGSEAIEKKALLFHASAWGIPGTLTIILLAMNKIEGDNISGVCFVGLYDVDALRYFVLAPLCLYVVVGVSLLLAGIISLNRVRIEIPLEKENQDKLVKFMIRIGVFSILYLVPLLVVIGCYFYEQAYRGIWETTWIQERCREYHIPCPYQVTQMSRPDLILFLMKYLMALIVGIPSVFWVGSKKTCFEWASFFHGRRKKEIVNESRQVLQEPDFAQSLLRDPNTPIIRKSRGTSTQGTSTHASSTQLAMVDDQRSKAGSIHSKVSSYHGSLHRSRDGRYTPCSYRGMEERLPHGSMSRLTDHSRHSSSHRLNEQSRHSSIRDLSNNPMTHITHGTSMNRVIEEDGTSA

B1: WNT5A recombinant protein (ligand)
chain: IIGAQPLCSQLAGLSQGQKKLCHLYQDHMQYIGEGAKTGIKECQYQFRHRRWNCSTVDNTSVFGRVMQIGSRETAFTYAVSAAGVVNAMSRACREGELSTCGCSRAARPKDLPRDWLWGGCGDNIDYGYRFAKEFVDARERERIHAKGSYESARILMNLHNNEAGRRTVYNLADVACKCHGVSGSCSLKTCWLQLADFRKVGDALKEKYDSAAAMRLNSRGKLVQVNSRFNSPTTQDLVYIDPSPDYCVRNESTGSLGTQGRLCNKTSEGMDGCELMCCGRGYDQFKTVQTERCHCKFHWCCYVKCKKCTEIVDQFVCK
INS+ cell number (immunofluorescence, day 3) of hESC-derived EPs treated with WNT5A and FZD3-neutralizing antibodies, compared to WNT5A treated EPs: 2.5 fold
